In the supplement of paper PMC12636428:

Test system: Saccharomyces cerevisiae
Experiment: transcriptional activation domain activity (GFP:mCherry ratio, weighted mean of sorted bins, harmonized to initial dataset scale) (arbitrary fluorescence ratio units); higher = stronger transcriptional activation
Conditions: beta-estradiol 1 µM; induction time 4 h
Procedure, shortened: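 In diploid yeast carrying a GFP reporter, barcoded protein tiles fused to an estradiol-inducible synthetic transcription factor were integrated at the URA3 locus. Cultures diluted 1:5 into SC with 1 uM beta-estradiol were kept at 30 °C for 4 hours, then sorted by GFP:mCherry ratio into 8 bins before barcode sequencing. Tiles with under 50 reads were excluded. The activation activity reported here is the read-weighted mean of bin median fluorescence, averaged across barcodes and linearly rescaled to the initial dataset.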

Sequence | transcriptional activation domain activity
PVVAPKQPRRRAVAGERYERLAQVGEGTYGKVYKARNTGSGALVALKRIRMEQ | 68200
MCSIFLVFIVPPNPLSYLISFAFFFLFSFYLWCLLRRGLSYFALYAYLKYALL | 43700
DDNAGDGSLSSVVKVWLEGLTPSGRVEIFGRRNPPPVVRFLLLLVVSRRIGSL | 58600
LILNCYWIVLVAFTFNMEVEYCKIVSVVGKLSSKFLGRVQVFLLLFMLMLFLV | 50600
KKPAAKAKAGPSKANGEAAANGKGEEKEQEKEEAPKEKFKAAKLADPAAPGSK | 31200
SPDQDPHRPKVESGGEEQEQLGPPKKKRRRQALNCTECKRRKIRCDRSQPCGP | 18300
AFSFALFDFDTLAGTFPFDSLGYSDDISTLTDPLIPMNYDPTPFSWTPRTTLA | 54300
KDEVMKIKPVQKQTTAGQRTRFKAVVIVGDSNGHVGLGIKSAKEVATAIRAAI | 55100
GKRRFLNGFLSCLLPTCGISDPLLRYAACFTVIRCCFRSNVLVPAMMRALLET | 45100
SGPRASSGAKAQSLSQRGAKRKAASTARTEGASSSKSSRARGGKARASRVAKT | 32900
MAHRFWTLQLFGNIYIIQFLGCIGFGLSLWILMHLINMIEVRNQTIQLSMLFA | 62800
GIVLLLNAWKGQKIGFVSKDLNLVYSCIRIANEAEERHIAAGRYVDFMNLLLH | 45500
LCAEEYRWHWRAFLTGGGSAFWLLAYGLFFWASRLSLHSMSSAILYLGYLFLL | 77800
MWCTRWFLPLLLLPLPTAPPYFLLLFLFSLTMHAKPCFYCIVLLTTLFVSSCY | 47800
MSSSLPSESPCQEPTKRRRKVKTGCRTCKIRRVKCDEGRPACHRCVSTGRVCD | 54000
CVGLLCLLDTLHLCFSIHMMYFYLIHNFGNVKAVFDIIWSLKGLGTVQVLLIW | 45200
LFFLSFLFFPFLSFLSFLFLFSFLFFPSFLFFPSLFLFLFSSPFHPIPFLFSS | 57800
TLIHEPDQLLFFPFFLFALFLSFPSFLLPSFFLLFLLFYFFPSYLLLCLFSFI | 51700
TTTGTTTTGTTATPSSSPETKPNKIPISMQGYAYSGGGRAIARVDVSLDNGRT | 37700
KLEHEPGPEPKPEAEEKPKKARGRPKKAIPEGGYTPKKARGRPKKVLDPEAEV | 14000
MSAATATKPPATGTTPRREATSRASAPSPAAASRTPARSSTPTATASATTSSP | 18000

Sequence | transcriptional activation domain activity
QSQPAKQPAKQPATKKSSKSKGSKKSKGSKGKGSRGSKSKAKGSRSKAKGKAH | 23600
ILNVTVRLNFLTFVLQYLMDTDYLSYYFTPLVSFWFLAIWIIMYAGHTWNKIP | 67300
LLYCNQIYLICPYVVNNKVQRQVSPRDMLIVLEAALKITSIYKILTYVYFENI | 58700
PVPFDPPMPVDGLGFLPGDGWMDAMDDIGPLEALDLGFLPVDFWEPHFNRQWN | 135000
MFENFSLLLSSLCFFPLSLFFCFFFLFPLSSFFFFVFLLAFCFCCFRFSLFFF | 18100
QVKGNAATLVVRSLALNADLCKLVECLWFLDRYVLVEGKHWAAALPRMKNLWF | 32200
MKVDLNKHPSCRRIIWVGYTKICTFLIPDKLLVYLSLTTQARRIAWREKLTLF | 59600
ASEPVKEETKPPVEEHASEPVEEETKPVEEEIKPVEEHASEPVKEETKPAEEH | < 6570
AAAAAAAEGDGEGKGKEDGEDKEKEGGNGEAEAEAGAEGKKAAAGAAQKESSN | 35100
MCLYRYYGFRIFLCLVVVLGDLFLGYLKLYVYIYNTVLVYWGEISISLLLVYI | 71900
MNIDAPRPRPGGDRPIRRRRRPVVACNECRRRKIACDRKSPCCQCTLHRVNCV | 44600
MNPPDNIIILPFHPLPFFWLLIFIPFSLSLPSSFFFNSNLSFLFFFFVFCFMI | 68600
RSDRDRRRKQSPESRGRRHRSRSKDARREKRKRADSEGEQSARRSRPSEHHRR | 19100
AINTAKAEIDGVREIMTENIERVLERGEHMSVLVDKTGRLGENARDFRVRSRT | 29100
KMLLDHIKKFVITYTGGLVLACDISRYHEVIVQFKSVQVDEYFNVLKEICSLF | 53900
MSSNFFGASNNAGQGSGTGASAPLFGAPKPADGGAAPAVGGLFGAKPAASGTG | 27300
LQKYTQLSLLAKPLINLSNHSIQYQTLQSWYFKTLQSLEANRFRNFMLCHRIL | 62300
VTFILALLVRLRRNLPLYSWMHWLHRHIDTLSSYDGISARPAWALFFIRLVWY | 74400
MAQTTPESASSSQSTLARGKACLRCRKRKMRCDGAKPACGQCVKAHKPDACQY | 24400
QIDQNGDPLAKYVRNKVRTTKYTIISILPKDLFEQFRNVIFFLVLVIFQNFPF | 56900
VSTCLIKFLALIIEDLHHYFDPFQLKLIGVLVTWYEGAFAKSLFPGELISSEA | 52400

Sequence | transcriptional activation domain activity
VKHRVIHLLVVFVAFFFAVTPVYFDYLCCGSPLVLFSSTLGMIIHLILFFFCL | 49000
KRKDGNGGAGREMKRGERDASPAKGKGASAARGRGGRGRGGRRGGSRGGKKRG | 32600
KTQDESKPADGASTEQPAKKKRKRKQKRAQDGEGGEGAAAVGGGGGGEETQKA | 33200
MDLGEERYRRLVSYLFFSFLYLHFIFLYFSFLWFMACGSWQWLNNLFFFISSF | 63800
MRLYCKVVYCHLFVSYLLPLSLTAHLNHLSKGRSLAIFCLLVLILSSFLFSFS | 27000
GPSSSSSLSSSAGMPGTFVLNLGRYGGYYVIHMPVGAQRVLGLVLRRWKTLLF | 60500
MIFSNLLVLSLLCSLFLFFYFFFYVLCFFLFAYTLSRSLYITILGFFDLVIVF | 66200
AINFWFFLTVYYGFYNLVGLLWITKIFNMYSLNWWPPQLGFPPTFTFFSCFPL | 51500
YTKTIATRNVANQTRLGKVRKSSVIVIAGNGHGRLGVGMAKSIEAPVATMAAT | 56400
MALEFLMDDIHLNKFLLLGYGVISKFLIVCHRYSKVVGETYYVIHTGIFYLLG | 56200
SGDADEDGNGHGTHCSGTVAGKKYGVAKKAHVYAVKVLRSNGSGTMSDVVKGV | 42000
RGGRRGRGERKREKEEKKRRKRKGKEKRATTEEGGRARRKEKKAVCGRRWSGG | 46100
PAPKKAPAKPRGRKPKPTADSDNQEVEAEAKPKSARGKKRTVAEKAAEEGAQP | < 6570
MFLVLGWMFAHFVTVSCWPLLLWHVFFWCCLTGASEAELFIPPFIFRLPILSS | 74400
MHGTGVFFGCLGIHIFFFLSSLLFHVDIFVIRDIFFNFLLFFFIFFLRILYSM | 42700
MFLYISLIFTLYYSTFPPPPPHPTSYLAIFLFLKLPWLFFSFSTSFSFTFFFW | 58400
LVSALWVLNTLHSALMFHLVYHYLILNAFDLFELSQNVWSLPASMIVHLIMAF | 47500
MLLAMGWKVATGLQTLSIFRRDGFLYFLVWINLINTMIVLFARPTLLFVTIFF | 51900
GAVNLSSNERVVFSCRGEVLESKFGRSSKLSPRTFVVTTSKFYIVVQMLVSGQ | 37800
MACLVSGIGWCLLYFTCMYLLLIYYILSLFYPPLASCNSFSFFFLSFFFFAGR | 59100
YNVWILFRHLVDLILLNDFVAYSLFGFSWMQFSPNHSTFFHVLRWIGGWSLVG | 69200

Sequence | transcriptional activation domain activity
RLFGRGQWTLGRVIFFVFFYFNVAPLMLGVSMVCWFMVFWIPMGRVTLILFYH | 85300
VYLCNVNLSIFKSVLSWVGVCTALYGCITIMPIFRHDSPYHTPLSFLAWHIVI | 63600
DVEMLKGLALRNPLEEGEDEAASLSQYAVNRQILLTYVILKLKLIRGKCILFV | 35000
RFISLAFFDVVSCSVWLSIYHLLVLRFFLDLQSCLSFLLLYIRPSFPCLLIPR | 50500
GGGTAARSAGSSSREEERGQRRHGRGERGREGADAGRKGGREGTREALAGKGR | 30800
SLFLLVVSINDVQTINFFYFVTDYGSWLEIGTSISHFCIAELFIIFTICLFWL | 37800
LIPIVVLNMYSLLMLLFIRGWFSYLIAVVSISGVLVLHMLYFLLQWRLKYILW | 65600
RRDVTLMGGLCLHTIQGAYLAACAYFVVPFSLVVSLGFEALLLLFCFIFIFIF | 50400
AHACIVLVVCEIDKTLGHSKHLLMIWLMRLLLLILNIMTIVGLFWSFLKCLDV | 70900
IPSLLSLSFYCLGFLSFAISSFSFPSFPLYHYPLCLGFLYSAGWLVGGYLWLY | 77000
PPPPPPPPPGPSPARFAPPPAPPPPPPPSGRPAPPPAPPPPPPPPPPAFGGGP | 17000
KKREKKERSRRHRDDDGERRRRHRSRSRSRDRERRHRHRDRSRSRDRRRDDGR | 35200
QILGCLYCVRWVHMCVYNVSGVQSLIPWLAMLPALARLKFSIWSHRGPPPDGD | 52100
VRQQLKIRLIKLFRRFYPYVNFAYYASGLVYNVLYLFNKTKYYSPWLHLIGVQ | 52200
AMERLRAAEKTAKEKRLCLYANAPAANSSSKGTTAATSRGGAFEATVVRVWSG | 61100
LQSPLYGRHILVAQQLVYYGCVILFPWLFISCALMFKFRGSWLLLYGMIDLSL | 44100
ISSSEKESDGENDSDSEENEQNDQSEIFPEFLGRRDPWQAVTVFILALLVFRN | 66500
DADSAQVAGECVVCQDEEANVVIVECGYVSLIIHLTLHRFIVLASLVISHYAQ | 63900
FPFSLLVLLIFYVFSFVFVICYMGILGAQYVYFYFSYIFDCHPLPLLRRLSFF | 36900
AFVLFLVYLTLFCWVCFATSSSWVYSEILNEGQYTESFMPVNYVLLAVLSGII | 64600
